From the supplement of paper PMC9233669
This sample holds only a part of the variants without activity.

Key:
[1] = tested on: biotinyl-Phe-oxazolone; assay: self-aminoacylation, catalytic enhancement (BFO) (fold over background); higher = more active; k-Seq, kA / k0A0; sequences stand for … in GGGAAUGGAUCCACAUCUACGAAUUC…UUCACUGCAGACUUGACGAAGCUG
Procedure, shortened: (§1)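 Mutagenized RNA pools with a 21-nt variable region (0.43 μM) reacted with each biotinyl-aminoacyl-oxazolone at 2–1250 μM. Reactions ran in 50 μL HEPES/NaCl/KCl/MgCl2/CaCl2 buffer with 5% acetonitrile, pH 6.9–7.0, for 90 minutes at room temperature. Streptavidin-captured RNA was quantified by triplicate qPCR and Illumina sequencing, and per-sequence fraction reacted was fit to a pseudo-first-order model with 1000 bootstraps. Catalytic enhancement is median kA divided by the uncatalyzed rate, the low-activity peak of a bimodal Gaussian fit.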

[2] = tested on: biotinyl-Ile-oxazolone; assay: self-aminoacylation, catalytic enhancement (BIO) (fold over background); higher = more active; k-Seq, kA / k0A0; sequences stand for … in GGGAAUGGAUCCACAUCUACGAAUUC…UUCACUGCAGACUUGACGAAGCUG
Procedure, shortened: as §1

[3] = tested on: biotinyl-Met-oxazolone; assay: self-aminoacylation, catalytic enhancement (BMO) (fold over background); higher = more active; k-Seq, kA / k0A0; sequences stand for … in GGGAAUGGAUCCACAUCUACGAAUUC…UUCACUGCAGACUUGACGAAGCUG
Procedure, shortened: as §1

[4] = tested on: biotinyl-Val-oxazolone; assay: self-aminoacylation, catalytic enhancement (BVO) (fold over background); higher = more active; k-Seq, kA / k0A0; sequences stand for … in GGGAAUGGAUCCACAUCUACGAAUUC…UUCACUGCAGACUUGACGAAGCUG
Procedure, shortened: as §1

[5] = tested on: biotinyl-Leu-oxazolone; assay: self-aminoacylation, catalytic enhancement (BLO) (fold over background); higher = more active; k-Seq, kA / k0A0; sequences stand for … in GGGAAUGGAUCCACAUCUACGAAUUC…UUCACUGCAGACUUGACGAAGCUG
Procedure, shortened: as §1

[6] = tested on: biotinyl-Trp-oxazolone; assay: self-aminoacylation, catalytic enhancement (BWO) (fold over background); higher = more active; k-Seq, kA / k0A0; sequences stand for … in GGGAAUGGAUCCACAUCUACGAAUUC…UUCACUGCAGACUUGACGAAGCUG
Procedure, shortened: as §1

Sequence | self-aminoacylation [1] | self-aminoacylation [2] | self-aminoacylation [3] | self-aminoacylation [4] | self-aminoacylation [5] | self-aminoacylation [6]
UUACUACAAACAAUCGGUCUG [Fam1A.1 aminoacylation ribozyme variant] | 1.62 | 1.04 | 0.904 | 0.833 | 0.856 | 1.31
UUACUUCAAACAACCGGUCUG [Fam1A.1 aminoacylation ribozyme variant] | 1.38 | 1.36 | 1.03 | 1.15 | 1.22 | 1.51
UUACUUCAAACAAUCGCUCUG [Fam1A.1 aminoacylation ribozyme variant] | 2.29 | 1.21 | 1.07 | 1.12 | 1.16 | 1.51
UUACUUCAAACAAUCGGACUG [Fam1A.1 aminoacylation ribozyme variant] | 7.94 | 1.08 | 1.26 | 0.854 | 0.969 | 4.92
UUACUUCAAACAAUCGGUAUG [Fam1A.1 aminoacylation ribozyme variant] | 12.4 | 1.16 | 1.02 | 1.02 | 1.3 | 7.05
UUACUUCUAACAAUCGGUCUG [Fam1A.1 aminoacylation ribozyme variant] | 0.907 | 1.08 | 1.09 | 1.08 | 1.11 | 0.836
UUUACCCGGGUCAUCGAGUGA [Fam2.1 aminoacylation ribozyme variant] | 43.1 | 3.4 | 7.15 | 4.02 | 7.17 | 9.17
UUUACCCUAGUCAUCGAGUGA [Fam2.1 aminoacylation ribozyme variant] | 17.3 | 2.79 | 5.76 | 3.09 | 5.04 | 7.33
UUUACCCUGGUCAUCGAAUGA [Fam2.1 aminoacylation ribozyme variant] | 1.02 | 1.31 | 1.22 | 1.05 | 1.19 | 1.78
UUUACCCUGGUCAUCGAGUCA [Fam2.1 aminoacylation ribozyme variant] | 1.06 | 0.707 | 0.696 | 0.738 | 0.713 | 0.585
UUUACCCUGGUCAUCUAGUGA [Fam2.1 aminoacylation ribozyme variant] | 46.3 | 4.72 | 8.71 | 4.43 | 8.63 | 10.9
UUUCACAUAGGUCAUCGGGUG [Fam2.2 aminoacylation ribozyme variant] | 56.6 | 5.3 | 7.92 | 5.12 | 8.51 | 7.61
UUUCACCGAGGUCAUCGGGUG [Fam2.2 aminoacylation ribozyme variant] | 44.3 | 4.52 | 7.19 | 5.17 | 6.07 | 6.08
UUUCACCUACGUCAUCGGGUG [Fam2.2 aminoacylation ribozyme variant] | 31.6 | 2.88 | 4.85 | 3.3 | 5.75 | 4.58
UUUCACCUAGAUCAUCGGGUG [Fam2.2 aminoacylation ribozyme variant] | 16.5 | 2.35 | 2.58 | 2.58 | 2.82 | 3.04
UUUCACCUAGCUCAUCGGGUG [Fam2.2 aminoacylation ribozyme variant] | 1.68 | 2.03 | 1.77 | 2.73 | 2.24 | 2.5
UUUCACCUAGGUCACCGGGUG [Fam2.2 aminoacylation ribozyme variant] | 26.7 | 3.8 | 3.77 | 3.87 | 5.2 | 5.47
UUUCACCUAGGUCAUCGGCUG [Fam2.2 aminoacylation ribozyme variant] | 8.98 | 1.93 | 1.89 | 2.29 | 1.82 | 2.74
UUUCACCUAGGUCAUCGGGUU [Fam2.2 aminoacylation ribozyme variant] | 44.3 | 6.15 | 10.4 | 5.7 | 12.6 | 7.39
UUUCACCUAGGUCAUCGUGUG [Fam2.2 aminoacylation ribozyme variant] | 4.69 | 1.19 | 1.43 | 1.27 | 1.19 | 1.34
UUUCACCUAGGUCAUUGGGUG [Fam2.2 aminoacylation ribozyme variant] | 17 | 2.59 | 2.51 | 2.66 | 2.57 | 3.77
UUUCACCUGGGUCAUCGGGUG [Fam2.2 aminoacylation ribozyme variant] | 24.2 | 3.99 | 5.12 | 5.26 | 4.95 | 6.75
UUUCAGCUAGGUCAUCGGGUG [Fam2.2 aminoacylation ribozyme variant] | 39 | 4.98 | 5.9 | 6.04 | 6.61 | 7.4
UUUCCCCUAGGUCAUCGGGUG [Fam2.2 aminoacylation ribozyme variant] | 96.8 | 6.97 | 11.8 | 6.87 | 15.1 | 10.4
UUUUACCUAGGUCAUCGGGUG [Fam2.2 aminoacylation ribozyme variant] | 56.1 | 6.78 | 10.3 | 6.67 | 13.5 | 10.4
UUUUCCCUGGUCAUCGAGUGA [Fam2.1 aminoacylation ribozyme variant] | 16.5 | 5.39 | 11.1 | 5.81 | 11.1 | 14.3
